Assay results reported in patent US20030199671A1, “Binding molecules for Fc-region polypeptides” (priority 2001, published 2003).
Each block holds one binder with its values, some of them ahead of it. Starred links: 1 amine or outer side, 2 acyl side, 3 side chain; linkers in the order of their positions; H or OH if unused. Primed or numbered codes have the meaning given here. code X″ = C-terminal linker unit, -NH-(CH2CH2O)2-CH2CH2- (X-NH2 = -NH-(CH2CH2O)2-CH2CH2-NH2), C(COCCOCC[*:2])N[*:1]; Su = not defined here

Legend:
[1] = target: human IgG (unfractionated, polyclonal); assay: total dynamic capacity
[2] = target: human IgG (unfractionated, polyclonal); assay: filterplate; 25 mg human IgG applied per ml resin

Dynamic Cap. [1]: 8 mg/mL | Static Cap. [2]: 20 mg/mL
B1: DX877 (peptide)
peptide: Ac-GDDHMCVYTTWGELIWCDNHEPGPEG-{NH‑(CH2CH2O)2‑CH2CH2‑NH2}
modifications: not fully specified (bridges); printed as Ac-GDDHMCVYTTWGELIWCDNHEPGPEG-X-NH2; cysteine pairing not given here

Dynamic Cap. [1]: 9 mg/mL | Static Cap. [2]: 23 mg/mL
B2: DX878 (peptide)
peptide: Ac-GDDHMCVYTTWGELIWCDNHEPG-{code X″-Su-code X″-NH2}
modifications: not fully specified (bridges); printed as Ac-GDDHMCVYTTWGELIWCDNHEPG-X-Su-X-NH2; cysteine pairing not given here; reading uncertain
